These results are taken from patent US9938505B2, “Polypeptide composition and culture method for pluripotent stem cell using same” (FUJIFILM Corporation, priority 2013, dated 2018).

To fix the notation:
B1: RCP-7: recombinant polypeptide SEQ ID NO: 20; human vitronectin positions 1-55, 270-373, C274S (protein)
chain: MDQESCKGRCTEGFNVDKKCQCDELCSYYQSCCTDYTAECKPQVTRGDVFTMPEDESQEESEGSSLSAVFEHFAMMQRDSWEDIFELLFWGRTSAGTRQPQFISRDWHGVPGQVDAAMAGRIYISGMAPRPSLAKKQRFRHRNRKGYRSQRGHSRGRNQN
modifications: Synthetic peptide RCP-7
notes: human vitronectin positions 1-55, 270-373, C274S
B2: RCP-6: recombinant polypeptide SEQ ID NO: 19; human vitronectin positions 1-55, 270-459, C274S, C411S, C453S (protein)
chain: MDQESCKGRCTEGFNVDKKCQCDELCSYYQSCCTDYTAECKPQVTRGDVFTMPEDESQEESEGSSLSAVFEHFAMMQRDSWEDIFELLFWGRTSAGTRQPQFISRDWHGVPGQVDAAMAGRIYISGMAPRPSLAKKQRFRHRNRKGYRSQRGHSRGRNQNSRRPSRATWLSLFSSEESNLGANNYDDYRMDWLVPATSEPIQSVFFFSGDKYYRVNLRTRRVDTVDPPYPRSIAQYWLGSPAPGHL
modifications: Synthetic peptide RCP-6
notes: human vitronectin positions 1-55, 270-459, C274S, C411S, C453S
B3: RCP-8: recombinant polypeptide SEQ ID NO: 21; human vitronectin positions 1-55, 270-373, 374-379, C274S (protein)
chain: MDQESCKGRCTEGFNVDKKCQCDELCSYYQSCCTDYTAECKPQVTRGDVFTMPEDESQEESEGSSLSAVFEHFAMMQRDSWEDIFELLFWGRTSAGTRQPQFISRDWHGVPGQVDAAMAGRIYISGMAPRPSLAKKQRFRHRNRKGYRSQRGHSRGRNQNSRRPSR
modifications: Synthetic peptide RCP-8
notes: human vitronectin positions 1-55, 270-373, 374-379, C274S
B4: RCP-17: recombinant polypeptide SEQ ID NO: 39; human vitronectin positions 1-55, 270-277, 295-341, 342-373, C274S (protein)
chain: MDQESCKGRCTEGFNVDKKCQCDELCSYYQSCCTDYTAECKPQVTRGDVFTMPEDESQEESEGSEDIFELLFWGRTSAGTRQPQFISRDWHGVPGQVDAAMAGRIYISGMAPRPSLAKKQRFRHRNRKGYRSQRGHSRGRNQN
modifications: Synthetic peptide RCP-17
notes: human vitronectin positions 1-55, 270-277, 295-341, 342-373, C274S

The data set is described as follows: Aggregation after dialysis (removal of urea). The format is physicochemical. To be noted: after stepwise dialysis against PBS, 1.5 M NaCl, 0.5 M L-arginine, 1 mM EDTA, pH 7.4. Here is the method: For RCP-1 to RCP-10 and RCP-17, each of the purified polypeptide solutions was dialyzed using SLIDE-A-LIZER (trade name, 3.5 K MWCO.). Basically, by using a dialysis buffer (PBS, 1.5 M NaCl, 0.5 M L-arginine, 1 mM EDTA, pH 7.4) as an outer dialysate, urea was removed by stepwise dialysis. The concentration of the end-product of dialysis was calculated from the absorbence at 280 nm by using NANODROP (trade name, Thermo Fisher Scientific Inc.).
Furthermore, the indices of hydrophobicity determined for each of the amino acids were summed up, the obtained value was divided by the number of the amino acids, and the outcome was determined as the GRAVY value (see Kyte J., Doolittle R. F. (1982), J. Mol. Biol, 157: 105-132). The GRAVY value is an index of the hydrophilicity and hydrophobicity of a polypeptide calculated from the degree of hydrophobicity of the amino acids contained in each polypeptide. The greater the GRAVY value, the more the polypeptide is hydrophobic, and the smaller the GRAVY value, the more the polypeptide is hydrophilic. The results are shown in Table 4. • Whether or not aggregation was occurred was evaluated based on the scale of G, A, and B as shown below. The results are summarized in Table 4. • G: The formation of an aggregate was not observed. • A: The formation of particles having a particle size of about 100 nm was observed. • B: The formation of an aggregation of particles having a particle size of equal to or greater than 1 mm was visually observed.
As for B1, the Aggregation entry is reported as “A (The formation of particles having a particle size of about 100 nm was observed.)”.

For B2, the Aggregation result is “A (The formation of particles having a particle size of about 100 nm was observed.)”. Turning to B3, the Aggregation entry is “A (The formation of particles having a particle size of about 100 nm was observed.)”.

Regarding B4, the Aggregation entry is recorded as “A (The formation of particles having a particle size of about 100 nm was observed.)”.
